Data set [1] concerns the target T1, SACE_0303 (TetR-family regulator) (Saccharopolyspora erythraea) (UniProt A4F6H8).
T1 sequence: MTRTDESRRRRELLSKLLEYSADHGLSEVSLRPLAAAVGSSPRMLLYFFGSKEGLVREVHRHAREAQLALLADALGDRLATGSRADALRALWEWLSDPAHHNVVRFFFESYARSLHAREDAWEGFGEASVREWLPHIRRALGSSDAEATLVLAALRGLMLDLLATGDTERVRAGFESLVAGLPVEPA
The data set can be described thus: DNase I footprinting. The conditions noted are these: EMSA: 10 mM Tris-HCl pH 7.5, 60 mM KCl, 50 mM EDTA (so in the source), 10 mM DTT, 5 mM MgCl2, 10% glycerol, 150 ng probe, 20 uL, 30 C 20 min; footprint at 20 C. A general note: Mobility shift assays separate free from complexed probe on a gel.

Data set [2] concerns the target T1, SACE_0303 (TetR-family regulator) (Saccharopolyspora erythraea). The data set can be described thus: EMSA. The settings on record: EMSA: 10 mM Tris-HCl pH 7.5, 60 mM KCl, 50 mM EDTA (so in the source), 10 mM DTT, 5 mM MgCl2, 10% glycerol, 150 ng probe, 20 uL, 30 C 20 min; footprint at 20 C.
Data set [3] addresses T2, SACE_0303 (TetR-family regulator) (Saccharopolyspora erythraea, UniProt A4F6H8 1-187).
T2 sequence: T1 sequence
The data set can be described thus: EMSA; EMSA: 10 mM Tris-HCl pH 7.5, 60 mM KCl, 50 mM EDTA (so in the source), 10 mM DTT, 5 mM MgCl2, 10% glycerol, 150 ng probe, 20 uL, 30 C 20 min; footprint at 20 C. The settings on record: protein: recombinant; tags: His6 (pET28a, NdeI/HindIII); chain copies: 2; blunt.

Experimental findings from publication PMC8476842, “Uncovering and Engineering a Mini-Regulatory Network of the TetR-Family Regulator SACE_0303 for Yield Improvement of Erythromycin in Saccharopolyspora erythraea” are described below.

“GGCGACGGCGGCTTTCGTCGGTGCGGGTCATCCGGATATCGTACTGAAACGACTGTTTCAGGAGGGCGCATGGGCGGCATCGAGATCCGCACCGGCCCGC (double strand) [P0303-0304]”: the binding result in data set [1] and in data set [2] was “binds” throughout. As to “AGCTTTGACAGGTCCGCCACGCGTCCCCCTACTCGACGACCACGCAATGGGCGAACAATATAGGAAGGATCAAGAGGTTGACATCGCCTCGTCGAGCCAACGAACCTGTGAACATCTGCATGTTGACAAGATCAACGGCGGCTACCTACTGTGGTGGCCCAGTGACGGGTTGCCGCACATCGCGCTGGGGAGATTCTTTGAATTTCGCCCGTAGCACCGACCTGGAAAGCGAGCAAATGCTCCGGTGAATGGGATCAGTGATTC (double strand) [PeryAI]”, the binding result in data set [2] is recorded as “no binding”. Still for that read-out and setting: next, “CGACCTCGGCCGCCTGCTGTCCTGCCGGCGGGCGGCACGTGCCGCGGTCCGCTGAAACGGTTGCGAAAACGGGAAATCACCGCTGAGGGTGGCCGCCGCCGGCGGATTGCGCCGCCGAGATCGGCATGCCTAGGCTTCCACCACCGCTCCATCACGTGCGGGGTCCGGGTCCGGGAGCAGCCGATGCCGCAAGACGCGTGTACTTCCGCCCGGCAGAACACGTCCTCG (double strand) [P3156]”: “binds”. As for “CGCTGGATCCTACCAACCGGCACGATTGTCCAGCCCACAACAGCATCGCGGTGCCACGTGTGGACCGCGTCGGTCAGATCCTCCCCGCACCTCTCGCCAGCCGTCAAGATCGACCGCGTGCACCTGCGATCGCCGATCAACCGCGACTAGCATCGGGCGCAAGCCGCCACTCGAACGGACACTCGC (double strand) [PermE]”, the binding result in data set [2] is listed as “no binding”.

B1: P0303-0304-56 bpM (dsDNA)
DNA 1: GGGTCATCCGGATATCGTAAAGCTTGGACTGGAATTCGAGGGCGCATGGGCGGCAT
DNA 2: ATGCCGCCCATGCGCCCTCGAATTCCAGTCCAAGCTTTACGATATCCGGATGACCC
In the case of B1, the binding result in data set [3] is “no binding”.
